According to patent US20250000991A1 (Eli Lilly, published 2025):
Where a chain is given by its changes, count along the chain named. Blank lines part the entries; values can stand above or below the binder they belong to.

Columns and labels:
[1] = target: T1, human Nectin-4-eGFP on T24 cells (clone 3) (human, UniProt Q96NY8 32-510); test: cell-based or functional assay
T1 sequence: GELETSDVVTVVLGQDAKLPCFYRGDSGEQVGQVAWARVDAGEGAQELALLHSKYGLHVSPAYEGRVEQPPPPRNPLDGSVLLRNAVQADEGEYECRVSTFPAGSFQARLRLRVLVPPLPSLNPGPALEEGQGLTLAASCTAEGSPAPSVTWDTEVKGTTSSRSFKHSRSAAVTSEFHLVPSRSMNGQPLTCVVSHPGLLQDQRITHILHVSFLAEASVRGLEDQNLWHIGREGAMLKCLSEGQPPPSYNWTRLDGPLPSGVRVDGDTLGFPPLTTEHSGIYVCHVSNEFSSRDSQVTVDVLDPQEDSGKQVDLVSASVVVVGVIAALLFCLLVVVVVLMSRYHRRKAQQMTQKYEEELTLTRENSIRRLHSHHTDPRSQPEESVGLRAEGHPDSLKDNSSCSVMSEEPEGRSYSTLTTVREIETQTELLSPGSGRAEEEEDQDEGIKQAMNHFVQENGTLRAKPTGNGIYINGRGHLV

human nectin-4 on cells [2] = target: T2, human nectin-4 on cells (human, UniProt Q96NY8 32-510); test: flow cytometry, NCI-H1781 cells (low endogenous nectin-4)
T2 construct: also called Nectin-4 receptor
T2 sequence: T1 sequence

human nectin-4 on cells [3] = target: T2, human nectin-4 on cells; test: flow cytometry, SUM190PT cells (high endogenous nectin-4)
human nectin-4 on cells [4] = target: T2, human nectin-4 on cells; test: cell-based or functional assay
[5] = target: T3, recombinant HIS-tagged human nectin-4 (Acro Biosystems Cat. No. NE4-H52H3) (human, UniProt Q96NY8 32-349); test: SPR Biacore 8K+, ADC captured via anti-human Fc, nectin-4 analyte, 37 C;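 also: Nectin-4 injected over captured ADC at 0 to 600 nM for 2 min association, then 10 min dissociation, with a reference flow cell lacking ADC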
T3 construct: Bought protein; not shown: HIS tag
T3 sequence: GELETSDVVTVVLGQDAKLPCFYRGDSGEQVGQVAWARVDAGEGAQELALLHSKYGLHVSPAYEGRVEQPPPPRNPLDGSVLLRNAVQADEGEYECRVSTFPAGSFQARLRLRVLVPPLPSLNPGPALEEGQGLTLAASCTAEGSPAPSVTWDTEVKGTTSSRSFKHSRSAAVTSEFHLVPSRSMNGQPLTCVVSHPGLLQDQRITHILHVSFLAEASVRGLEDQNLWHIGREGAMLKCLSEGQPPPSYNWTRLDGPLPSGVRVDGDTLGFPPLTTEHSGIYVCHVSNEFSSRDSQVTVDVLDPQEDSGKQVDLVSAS

[6] = target: T4, recombinant HIS-tagged cyno nectin-4 (Acro Biosystems Cat. No. NE4-C52H4) (cyno, UniProt A0A2K5WES1 32-349); test: as above
T4 construct: Bought protein; HIS tag not described
T4 sequence: T3 sequence with V39A, I230V

[7] = target: T5, recombinant HIS-tagged rat nectin-4 (R&D Systems Cat. No. 9997-N4-050) (rat, UniProt D3ZET1 31-348); test: as above
T5 construct: Bought protein; HIS tag not described
T5 sequence: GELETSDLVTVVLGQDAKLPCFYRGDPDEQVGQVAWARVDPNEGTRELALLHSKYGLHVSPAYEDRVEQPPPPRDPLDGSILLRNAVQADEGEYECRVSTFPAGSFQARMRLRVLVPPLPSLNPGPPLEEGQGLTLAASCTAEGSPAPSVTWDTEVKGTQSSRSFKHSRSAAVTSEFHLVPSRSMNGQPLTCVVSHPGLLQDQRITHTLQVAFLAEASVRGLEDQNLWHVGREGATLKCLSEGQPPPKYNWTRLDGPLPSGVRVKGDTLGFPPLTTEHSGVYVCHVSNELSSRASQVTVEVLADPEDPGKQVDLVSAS

% activity (max GFP signal loss compared to enfortumab mAb (100%)) [1]: 145%
EC50 (nM) of nectin-4-eGFP signal loss [1]: 2.54 nM
% of enfortumab (Average Max MFI) (human nectin-4 on cells [2]): 84.5%
Average Max MFI (human nectin-4 on cells [2]): 77000 MFI
EC50 (human nectin-4 on cells [2]): 0.2 nM
% of enfortumab (Average Max MFI) (human nectin-4 on cells [3]): 55.6%
Average Max MFI (human nectin-4 on cells [3]): 590000 MFI
EC50 (human nectin-4 on cells [3]): 0.12 nM
B1: Ab1a (antibody, human IgG1, kappa, L234A L235A, V domains shown)
VH: QVQLVQSGAQVKKPGASVKVSCKASGYTFTGYYIHWVRQAPGQGLEWMGWINPNSGGTNYAQKFQGRVTMTRDTSISTAYMELSRLRSDDTAVYFCAREDWDFDYWGQGTLVTVSS
VL: EIVLTQSPGTLSLSPGERATLSCRTSQSVSSSYLAWYQQKPGQAPRLLIYGASNRATDIPDRFSGSGSGTDFTLTINRLEPEDFAVYYCQQYGSSPITFGQGTRLEIKR
notes: Unconjugated antibody; also called nectin-4 antibody Ab1a

% activity (max GFP signal loss compared to enfortumab mAb (100%)) [1]: 64.4%
EC50 (nM) of nectin-4-eGFP signal loss [1]: 1.3 nM
% of enfortumab (Average Max MFI) (human nectin-4 on cells [2]): 105%
Average Max MFI (human nectin-4 on cells [2]): 96000 MFI
EC50 (human nectin-4 on cells [2]): 0.1 nM
% of enfortumab (Average Max MFI) (human nectin-4 on cells [3]): 112%
Average Max MFI (human nectin-4 on cells [3]): 1.2e+06 MFI
EC50 (human nectin-4 on cells [3]): 0.23 nM
B2: Ab3 (antibody, human IgG1, kappa, L234A L235A, V domains shown)
VH: EVQLVESGGGLVKPGGSLRLSCAASGFNLNHYNMNWVRQAPGKGLEWVSSVSSGGGFRYYADSVRGRFTISRDNAKNSLYLQMNSLRAEDTAVYYCARGAVFHDAFDIWGQGTLVTVSS
VL: DIQLTQSPSFLSASVGDRVTITCRASQDISSYLAWYQQKPGKAPKLLIYVASTLQSGVPSRFSGSGSGTEFTLTISSLQPEDFATYYCQQINSYPFTFGQGTKVEIKR
notes: Unconjugated antibody; also called Antibody 3; nectin-4 antibody Ab3

% activity (max GFP signal loss compared to enfortumab mAb (100%)) [1]: 40.1%
EC50 (nM) of nectin-4-eGFP signal loss [1]: 2.69 nM
% of enfortumab (Average Max MFI) (human nectin-4 on cells [2]): 102%
Average Max MFI (human nectin-4 on cells [2]): 93000 MFI
EC50 (human nectin-4 on cells [2]): 0.08 nM
% of enfortumab (Average Max MFI) (human nectin-4 on cells [3]): 145%
Average Max MFI (human nectin-4 on cells [3]): 1.5e+06 MFI
EC50 (human nectin-4 on cells [3]): 0.31 nM
B3: Ab5 (antibody, human IgG1, kappa, L234A L235A, V domains shown)
VH: QVQLVQSGAEVKKPGASVKVSCKASGYTFTSYYVHWVRQAPGQGLEWMGIINPSIISTSYAQKFQARVTMTRDTSTSTVYMELSSLRSEDTAVYYCARGLNFDAFDIWGQGTLVTVSS
VL: B2 VL with D28G, V50A, I91L, S93N
notes: Unconjugated antibody; also called Antibody 5; nectin-4 antibody Ab5

% activity (max GFP signal loss compared to enfortumab mAb (100%)) [1]: 40.9%
EC50 (nM) of nectin-4-eGFP signal loss [1]: 0.41 nM
% of enfortumab (Average Max MFI) (human nectin-4 on cells [2]): 95.8%
Average Max MFI (human nectin-4 on cells [2]): 87000 MFI
EC50 (human nectin-4 on cells [2]): 0.14 nM
% of enfortumab (Average Max MFI) (human nectin-4 on cells [3]): 97.9%
Average Max MFI (human nectin-4 on cells [3]): 1e+06 MFI
EC50 (human nectin-4 on cells [3]): 0.19 nM
B4: Ab4 (antibody, human IgG1, kappa, L234A L235A, V domains shown)
VH: QVQLQESGPGLVKPSETLSLTCTVSGGSISGYYWSWIRQPPGKGLEWIGYIYYSGSTNYNPSLKSRVTISVDTSKNQFSLKLSSVTAADTAVYYCARLGIFFDAFDIWGQGTLVTVSS
VL: B2 VL with D28G, V50A, I91F, F96W
notes: Unconjugated antibody; also called Antibody 4

% activity (max GFP signal loss compared to enfortumab mAb (100%)) [1]: 143%
EC50 (nM) of nectin-4-eGFP signal loss [1]: 2.1 nM
Kd [5]: 204 nM
B5: Ab4 ADC (Ab4 conjugated as in Formula XI, DAR of 8) (antibody, human IgG1, kappa, L234A L235A, V domains shown)
VH: B4 VH
VL: B2 VL with D28G, V50A, I91F, F96W
modifications: camptothecin analog linker-payload of Formula XI on cysteine thiols after full reduction, DAR of 8 per antibody; positions not given
notes: Antibody-drug conjugate of Ab4; also called Ab4 (ADC column)
Cytotoxicity IC50, NCI H1781 cells (human nectin-4 on cells [4]): 0.311 nM
Cytotoxicity IC50, T24 Nectin-4 clone 108 cells (human nectin-4 on cells [4]): 0.115 nM

% activity (max GFP signal loss compared to enfortumab mAb (100%)) [1]: 136%
EC50 (nM) of nectin-4-eGFP signal loss [1]: 2.68 nM
Kd [5]: 1.03 nM
koff [5]: 0.000437 s⁻¹
kon [5]: 424000 M⁻¹ s⁻¹
Kd [6]: 0.986 nM
koff [6]: 0.000426 s⁻¹
kon [6]: 432000 M⁻¹ s⁻¹
Kd [7]: 5.28 nM
koff [7]: 0.000903 s⁻¹
kon [7]: 171000 M⁻¹ s⁻¹
B6: Ab3 ADC (Ab3 conjugated as in Formula XI, DAR of 8) (antibody, human IgG1, kappa, L234A L235A, V domains shown)
VH: B2 VH
VL: B2 VL
modifications: camptothecin analog linker-payload of Formula XI on cysteine thiols after full reduction, DAR of 8 per antibody; positions not given
notes: Antibody-drug conjugate of Ab3; also called Ab3 (ADC column)
Cytotoxicity IC50, NCI H1781 cells (human nectin-4 on cells [4]): 0.0553 nM
Cytotoxicity IC50, T24 Nectin-4 clone 108 cells (human nectin-4 on cells [4]): 0.0825 nM

% activity (max GFP signal loss compared to enfortumab mAb (100%)) [1]: 65.1%
EC50 (nM) of nectin-4-eGFP signal loss [1]: 41.4 nM
% of enfortumab (Average Max MFI) (human nectin-4 on cells [2]): 93.8%
Average Max MFI (human nectin-4 on cells [2]): 85000 MFI
EC50 (human nectin-4 on cells [2]): 0.03 nM
% of enfortumab (Average Max MFI) (human nectin-4 on cells [3]): 127%
Average Max MFI (human nectin-4 on cells [3]): 1.3e+06 MFI
EC50 (human nectin-4 on cells [3]): 0.17 nM
B7: Ab6 (antibody, human IgG1, lambda, L234A L235A, V domains shown)
VH: QVQLVQSGAEVKKPGASVKVSCKASGYTFTGYYMHWVRQAPGQGLEWMGIINPSGGSTTYAQKFQGRVTMTRDTSTSTVYMELSSLRSEDTAVYYCARGRLGTYFDYWGQGTLVTVSS
VL: SYVLTQPPSVSVAPGQTARITCGGNNIGSKSVHWYQQKPGQAPVLVVYDDSDRPSGIPERFSGSNSGNTATLTISRVEAGDEADYYCQVWDRSSDQVVFGGGTKLTVLG
notes: Unconjugated antibody; also called Antibody 6; nectin-4 antibody Ab6

% activity (max GFP signal loss compared to enfortumab mAb (100%)) [1]: 118%
EC50 (nM) of nectin-4-eGFP signal loss [1]: 2.26 nM
Kd [5]: 91.8 nM
koff [5]: 0.163 s⁻¹
kon [5]: 1.78e+06 M⁻¹ s⁻¹
Kd [7]: 114 nM
koff [7]: 0.105 s⁻¹
kon [7]: 925000 M⁻¹ s⁻¹
B8: Ab6 ADC (Ab6 conjugated as in Formula XI, DAR of 8) (antibody, human IgG1, lambda, L234A L235A, V domains shown)
VH: B7 VH
VL: B7 VL
modifications: camptothecin analog linker-payload of Formula XI on cysteine thiols after full reduction, DAR of 8 per antibody; positions not given
notes: Antibody-drug conjugate of Ab6; also called Ab6 (ADC column)
Cytotoxicity IC50, NCI H1781 cells (human nectin-4 on cells [4]): 0.0608 nM
Cytotoxicity IC50, T24 Nectin-4 clone 108 cells (human nectin-4 on cells [4]): 0.0783 nM

% activity (max GFP signal loss compared to enfortumab mAb (100%)) [1]: 66.5%
EC50 (nM) of nectin-4-eGFP signal loss [1]: 3.37 nM
% of enfortumab (Average Max MFI) (human nectin-4 on cells [2]): 96%
Average Max MFI (human nectin-4 on cells [2]): 87000 MFI
EC50 (human nectin-4 on cells [2]): 0.09 nM
% of enfortumab (Average Max MFI) (human nectin-4 on cells [3]): 112%
Average Max MFI (human nectin-4 on cells [3]): 1.2e+06 MFI
EC50 (human nectin-4 on cells [3]): 0.14 nM
B9: Ab7 (antibody, human IgG1, lambda, L234A L235A, V domains shown)
VH: QVQLVQSGAEVKKPGASVKVSCKASGYTFTNYYMHWVRQAPGQGLEWMGIINPSSGSASYAQKFQGRVTMTRDTSTSTVYMELSSLRSEDTAVYYCAREGVGRDILQAFDIWGQGTLVTVSS
VL: QSVLTQPPSVSEAPRQRVTISCSGSSSNIGNNAVNWYQQLPGKAPKLLIYYDDLLPSGVSDRFSGSKSGTSASLAISGLQSEDEADYYCAAWDDSLNGHVFGGGTKLTVLG
notes: Unconjugated antibody; also called Antibody 7; nectin-4 antibody Ab7

% activity (max GFP signal loss compared to enfortumab mAb (100%)) [1]: 53.7%
EC50 (nM) of nectin-4-eGFP signal loss [1]: 3.68 nM
% of enfortumab (Average Max MFI) (human nectin-4 on cells [2]): 99.6%
Average Max MFI (human nectin-4 on cells [2]): 90000 MFI
EC50 (human nectin-4 on cells [2]): 0.1 nM
% of enfortumab (Average Max MFI) (human nectin-4 on cells [3]): 81.9%
Average Max MFI (human nectin-4 on cells [3]): 8.7e+06 MFI
EC50 (human nectin-4 on cells [3]): 0.11 nM
B10: Ab8 (antibody, human IgG1, lambda, L234A L235A, V domains shown)
VH: QVQLVQSGAEVKKPGASVKVSCKASGYTFTSYYIHWVRQAPGQGLEWMGIINPISGRTSSAQKFQGRVTMTRDTSTSTVYMELSSLRSEDTAVYYCAKEGVGGELLRAFDIWGQGTLVTVSS
VL: B9 VL with H99F
notes: Unconjugated antibody; also called Antibody 8; nectin-4 antibody Ab8
